Ends that are not written are not given here. dimethyl = dimethyl-lysine
B1: 53BP1 tandem Tudor domain (residues 1459-1634) (domain or fragment, human, UniProt Q12888 1459-1634, looked up)
chain: RSDSPEIPFQAAAGPSDGLDASSPGNSFVGLRVVAKWSSNGYFYSGKITRDVGAGKYKLLFDDGYECDVLGKDILLCDPIPLDTEVTALSEDEYFSAGVVKGHRKESGELYYSIEKEGQRKWYKRMAVILSLEQGNRLREQYGLGPYEAVTPLTKAADISLDNLVEGKRKRRSNVS
notes: also called 53BP1 TTD; TTD; source: E. coli BL21 (DE3), purified (Ni-chelating Sepharose, 3C protease, Source 15Q, Superdex 200 Increase); not shown: His6, N-terminal, cleaved
B3: Tudor interacting repair regulator (TIRR), residues 6-211 (domain or fragment, human, UniProt Q9BRJ7 6-211, looked up)
chain: VPELKQISRVEAMRLGPGWSHSCHAMLYAANPGQLFGRIPMRFSVLMQMRFDGLLGFPGGFVDRRFWSLEDGLNRVLGLGLGCLRLTEADYLSSHLTEGPHRVVAHLYARQLTLEQLHAVEISAVHSRDHGLEVLGLVRVPLYTQKDRVGGFPNFLSNAFVSTAKCQLLFALKVLNMMPEEKLVEALAAATEKQKKALEKLLPASS
notes: two TIRR molecules in the crystal; also called NUDT16L1; wild-type TIRR; source: E. coli BL21 (DE3), purified (Ni-chelating Sepharose, 3C protease, Superdex 200 Increase); not shown: His6, N-terminal, cleaved

Experiments:
[1] = target: B3; assay: ITC; 25 °C, PBS pH 7.0 with 140 mM NaCl; 150 μM 53BP1 TTD injected into 15 μM TIRR or its mutants; 80-100 μM TTD mutant into 8-10 μM TIRR; 750 μM H4K20me2 peptide into 37.5 μM TTD; settings: both partners purified
[2] = target: B3; assay: AUC; sedimentation velocity, 60,000 rpm, 20 °C, 10 mM Tris-HCl pH 8.0, 200 mM NaCl, 3 mM DTT; TIRR 53 μM, TTD 35 μM, mixture 20 μM TIRR with 20 μM TTD; settings: both partners purified
[3] = target: B1; assay: ITC; 25 °C, PBS pH 7.0 with 140 mM NaCl; 150 μM 53BP1 TTD injected into 15 μM TIRR or its mutants; 80-100 μM TTD mutant into 8-10 μM TIRR; 750 μM H4K20me2 peptide into 37.5 μM TTD; settings: both partners purified
[4] = target: the molecule itself; assay: AUC; sedimentation velocity, 60,000 rpm, 20 °C, 10 mM Tris-HCl pH 8.0, 200 mM NaCl, 3 mM DTT; TIRR 53 μM, TTD 35 μM, mixture 20 μM TIRR with 20 μM TTD

Binder: B1
- Kd [1]: ~780 nM
- stoichiometry N [2]: 1

B2: H4K20me2 peptide (residues 12-25) (peptide, UniProt P62805 13-26, looked up)
peptide: KGGAKRHRK(dimethyl)VLRDN
notes: histone H4, residues 12-25, dimethylated on lysine 20; Peptide used in ITC
- binding result [3]: binds

Binder: B3
- stoichiometry N [4]: 2

Source: publication PMC6043480, “Molecular basis for the inhibition of the methyl-lysine binding function of 53BP1 by TIRR” (Nature Communications, 2018)
